Source: patent publication US20200164114A1
pIC50: −log10 of the molar value.

Tests used:
[1] = molecular target: integrin αIIbβ3 on CHO cells (CHO-αIIbβ3) (UniProt P08514); test: cell adhesion inhibition: CHO-αIIbβ3 cells to immobilized fibrinogen
[2] = molecular target: integrin αIIbβ3 on human platelets (human) (UniProt P08514); test: cell-based or functional assay
[3] = molecular target: integrin αvβ3 on CHO cells (CHO-αvβ3) (UniProt P06756); test: cell adhesion inhibition: CHO-αvβ3 cells to immobilized fibrinogen

Sequence of integrin αIIbβ3 on human platelets (human) (P08514 32-1039, chain 1 of 2): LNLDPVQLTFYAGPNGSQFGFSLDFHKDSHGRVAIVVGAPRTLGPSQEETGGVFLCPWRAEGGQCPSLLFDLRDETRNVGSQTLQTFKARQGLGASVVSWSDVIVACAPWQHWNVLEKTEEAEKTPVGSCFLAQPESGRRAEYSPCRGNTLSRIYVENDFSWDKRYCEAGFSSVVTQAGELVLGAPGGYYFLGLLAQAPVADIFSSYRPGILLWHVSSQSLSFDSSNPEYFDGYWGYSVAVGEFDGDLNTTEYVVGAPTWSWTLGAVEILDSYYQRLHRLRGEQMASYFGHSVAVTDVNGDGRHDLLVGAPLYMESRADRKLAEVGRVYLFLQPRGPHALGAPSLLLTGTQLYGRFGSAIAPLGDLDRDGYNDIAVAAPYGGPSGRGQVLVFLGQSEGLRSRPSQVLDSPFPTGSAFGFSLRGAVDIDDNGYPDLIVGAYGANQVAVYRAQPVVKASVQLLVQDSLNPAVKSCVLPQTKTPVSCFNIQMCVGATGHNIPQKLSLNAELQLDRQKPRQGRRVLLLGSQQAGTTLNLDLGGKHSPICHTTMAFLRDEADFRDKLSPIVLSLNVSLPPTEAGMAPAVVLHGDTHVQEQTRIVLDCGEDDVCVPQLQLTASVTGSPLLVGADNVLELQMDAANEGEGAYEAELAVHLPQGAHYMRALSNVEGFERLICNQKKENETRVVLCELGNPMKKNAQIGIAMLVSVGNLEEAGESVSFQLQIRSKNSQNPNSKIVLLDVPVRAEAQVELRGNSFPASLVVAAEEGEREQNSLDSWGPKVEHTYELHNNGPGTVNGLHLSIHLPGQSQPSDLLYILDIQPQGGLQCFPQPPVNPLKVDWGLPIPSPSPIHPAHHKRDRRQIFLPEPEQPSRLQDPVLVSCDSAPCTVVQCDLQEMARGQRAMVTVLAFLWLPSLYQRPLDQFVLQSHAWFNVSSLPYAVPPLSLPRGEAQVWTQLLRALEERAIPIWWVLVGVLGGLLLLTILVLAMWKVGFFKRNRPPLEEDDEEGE
Sequence of integrin αIIbβ3 on human platelets (human) (P05106 27-788, chain 2 of 2, further chain): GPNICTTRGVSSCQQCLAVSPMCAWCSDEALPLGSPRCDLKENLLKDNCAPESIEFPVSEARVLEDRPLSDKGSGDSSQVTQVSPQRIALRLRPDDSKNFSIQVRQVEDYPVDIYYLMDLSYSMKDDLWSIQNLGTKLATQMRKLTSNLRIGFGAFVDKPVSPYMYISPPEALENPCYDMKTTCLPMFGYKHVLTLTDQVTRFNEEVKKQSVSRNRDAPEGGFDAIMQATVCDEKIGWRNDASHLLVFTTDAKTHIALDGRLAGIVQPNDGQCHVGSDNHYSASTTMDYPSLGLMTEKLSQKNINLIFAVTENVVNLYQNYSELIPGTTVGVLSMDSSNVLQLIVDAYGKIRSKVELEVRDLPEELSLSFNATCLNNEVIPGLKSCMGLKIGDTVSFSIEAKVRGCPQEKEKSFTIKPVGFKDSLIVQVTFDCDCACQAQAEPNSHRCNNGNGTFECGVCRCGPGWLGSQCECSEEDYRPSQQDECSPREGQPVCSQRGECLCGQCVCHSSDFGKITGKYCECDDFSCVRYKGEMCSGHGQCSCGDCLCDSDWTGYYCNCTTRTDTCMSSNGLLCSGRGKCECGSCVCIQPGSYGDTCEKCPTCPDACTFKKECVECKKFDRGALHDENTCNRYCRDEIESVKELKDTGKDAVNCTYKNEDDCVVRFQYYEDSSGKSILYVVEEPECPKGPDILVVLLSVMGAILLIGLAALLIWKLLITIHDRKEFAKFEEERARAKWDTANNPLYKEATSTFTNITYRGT

Substance | pIC50 [1] | Platelet aggregation IC50 (nM), ADP [2] | Platelet aggregation IC50 (nM), Collagen [2] | pIC50 [3] | Platelet Aggregation IC50 [2]
trimucrin mutant T/KS | 4.40 | 1080 nM | 562 nM |  | 
trimucrin mutant T/KWNR | < 6.16 | 54.6 nM | 52.4 nM |  | 
trimucrin mutant T/MGKWN | 5.76 | 78 nM | 48.5 nM |  | 
trimucrin mutant T/KYR | 5.83 | 117 nM | 61 nM |  | 
trimucrin mutant T/KWR | 6.54 | 106 nM | 26.3 nM |  | 
trimucrin mutant T/KY | 5.48 | 246 nM | 44.9 nM |  | 
rhodostomin | 7.23 | 81.5 nM | 66.8 nM | 7.89 | 83.2 nM
trimucrin mutant T/KHR | 5.22 | 256 nM | 80.1 nM |  | 
trimucrin mutant T/KRR | 5.14 | 213 nM | 30.9 nM |  | 
trimucrin (TMV-7) |  | 184 nM | 83.8 nM |  | 
trimucrin mutant T/IEEGKRR | 4.47 | 511 nM | 57.5 nM |  | 
trimucrin mutant T/KR | 5.20 | 141 nM | 49.9 nM |  | 
rhodostomin mutant R/K | 7.05 | 152 nM |  |  | 
trimucrin T/KRRR mutant | 5.18 | 127 nM | 30.6 nM |  | 127 nM
trimucrin mutant T/KRRFH | 5.25 | 192 nM | 66.9 nM |  | 
trimucrin mutant T/KF | 5.26 | 154 nM | 68.9 nM |  | 
trimucrin mutant T/IEEGK | 4.01 | 1050 nM | 217 nM |  | 
trimucrin mutant T/KH | 4.80 | 382 nM | 99.3 nM |  | 
trimucrin mutant T/KRKR | 4.86 | 138 nM |  |  | 
trimucrin mutant T/KFRFH | 5.50 | 120 nM | 63.1 nM |  | 
trimucrin mutant T/K | 4.56 | 563 nM | 105 nM |  | 
trimucrin mutant T/IEEGKS | < 3.71 | 563 nM | 632 nM |  | 
trimucrin mutant T/KWN | 5.75 | 125 nM | 67.7 nM |  | 
